Molecular target: porcine plasminogen (porcine)
Assay: SPR

Substance	Kd	kon
F3_(P146/J), recombinant C-terminal fragment of P146 (MHJ_0663) of Mycoplasma hyopneumoniae strain J (domain or fragment)	39 nM	46000 M⁻¹ s⁻¹
F3_(P146/JΔK), strain J F3_(P146) without its C-terminal lysine (domain or fragment)	210 nM	13000 M⁻¹ s⁻¹
F3_(P146/232), recombinant C-terminal fragment of P146 (Mhp684) of Mycoplasma hyopneumoniae strain 232 (domain or fragment)	46 nM	170000 M⁻¹ s⁻¹
F3_(P146/232ΔR), strain 232 F3_(P146) without its C-terminal arginine (domain or fragment)	220 nM	13000 M⁻¹ s⁻¹

Source: PMC3322551
